According to article PMC9728131, “Host acid signal controls Salmonella flagella biogenesis through CadC-YdiV axis”:

T1: CadCc (Escherichia coli K-12 MG1655 (cloning template per Methods; text discusses Salmonella CadC)) (UniProt P23890)
T1 sequence: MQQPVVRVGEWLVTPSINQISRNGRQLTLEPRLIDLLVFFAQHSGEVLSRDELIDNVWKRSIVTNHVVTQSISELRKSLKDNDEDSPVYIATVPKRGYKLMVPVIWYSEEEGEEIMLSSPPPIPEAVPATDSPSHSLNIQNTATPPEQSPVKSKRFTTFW

T2: H-NS (Escherichia coli K-12 MG1655 (cloning …, UniProt P0ACF8 1-137))
T2 sequence: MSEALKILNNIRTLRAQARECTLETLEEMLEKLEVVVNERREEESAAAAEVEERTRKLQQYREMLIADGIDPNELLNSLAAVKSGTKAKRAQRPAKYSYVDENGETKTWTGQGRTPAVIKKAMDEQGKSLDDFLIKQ

B1: 19 nt overlap DNA of ydiV promoter (dsDNA)
DNA 1: TCATCATATATAATGATAT
DNA 2: ATATCATTATATATGATGA

Legend:
[1] = biological target: T1, CadCc (Escherichia coli K-12 MG1655 (cloning template per Methods; text discusses Salmonella CadC)); test: BLI; conditions: EMSA: 20 mM Tris-HCl pH 8.0, 100 mM NaCl, 1 mM MgCl2, 1 mM ZnCl2, 4% glycerol, RT 10 min (competition 4 C, 30 min + 30 min); BLI: PBS + 1 mM ZnCl2 (CadCc …)
H-NS = biological target: T2, H-NS; test: BLI; PBS without ZnCl2; printed unit umoL; kdis 0.0145/s; EMSA: 20 mM Tris-HCl pH 8.0, 100 mM NaCl, 1 mM MgCl2, 1 mM ZnCl2, 4% glycerol, RT 10 min (competition 4 C, 30 min + 30 min); BLI: PBS + 1 mM ZnCl2 (CadCc, 50 ug/mL) or PBS (H-NS), 25 C; footprinting: 30 C, 30 min; conditions: protein: recombinant; tags: N-terminal 6xHis (pGL01); chain copies: 2; Methods: 'C-terminus'); blunt

Molecule	Kd [1]	Kd (H-NS)
TCATCATATATAATGATAT (double strand) [19 nt overlap DNA of ydiV promoter]	203 nM	
B1		533 ± 12.7 nM
